26 molecules from patent US20230272088A1 (SYNTHEKINE, published 2023) can be followed below.

Experiment [1] addresses T1, extracellular domain of hIFNGR2 (human, UniProt P38484 28-247, conjugated to Alexa647 (site not stated)).
T1 construct: also called hIFNGR2-ECD; human IFNGR2 ECD
T1 sequence: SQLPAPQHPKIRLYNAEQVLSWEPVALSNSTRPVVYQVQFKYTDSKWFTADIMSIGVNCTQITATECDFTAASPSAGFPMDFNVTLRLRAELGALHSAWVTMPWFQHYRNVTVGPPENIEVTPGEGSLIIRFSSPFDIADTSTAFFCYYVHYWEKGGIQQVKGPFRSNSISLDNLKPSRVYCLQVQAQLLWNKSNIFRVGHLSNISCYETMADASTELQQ
Nature of the experiment: flow cytometry, yeast-displayed VHH, 100 nM Alexa647-conjugated antigen. How it is done: (§1) Binding of individual VHH to human and murine antigen was tested by flow cytometry. Briefly, 2E5 yeast cells expressing a single sdAb clone were added to each well of a 96 well plate. The first plate was incubated with 100 nM of human antigen conjugated to Alexa647 whereas the second plate was incubated with 100 nM of murine antigen conjugated to Alexa647. Yeast cells were washed 3 times with PBS containing 1% bovine serum albumin. Yeast cells were analyzed using flow cytometry and clones showing a mean fluorescence intensity of greater than 1000 were considered as binding molecules. Specificity of sdAbs was confirmed by incubating yeast cells with a irrelevant protein conjugated to Alexa647. Positive clones were sequenced, and sequences analyzed to identify unique clonotypes.

For experiment [2], the target named is T2, extracellular domain of hIFNGR1 (human, UniProt P15260 18-245, conjugated to Alexa647 (site not stated)).
T2 construct: UniProt P15260 residues 18-245; also called hIFNGR1-ECD; human IFNGR1 ECD
T2 sequence: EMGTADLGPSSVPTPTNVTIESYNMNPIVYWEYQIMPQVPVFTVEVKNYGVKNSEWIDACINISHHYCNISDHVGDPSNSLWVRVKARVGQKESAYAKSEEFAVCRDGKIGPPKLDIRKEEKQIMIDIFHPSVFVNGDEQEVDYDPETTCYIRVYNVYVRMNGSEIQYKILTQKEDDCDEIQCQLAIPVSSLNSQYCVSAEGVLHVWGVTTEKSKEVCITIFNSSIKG
The description is as above. How it is done: as §1

B1: DR951 (VHH)
VHH: QVQLVESGGGLVQAGGSLRLSCAASGRTFGTSFGSLSMGWFRQAPGKEREFVAAISRNIGRTYYADSVKDRFTISRDNAKNTASLQMNSLEPEDTAVYNCAATNSYDDLRRSYAYDYWGQGTQVTVSS
notes: also called anti-IFNGR2 sdAb VHH DR951
Take B1: in experiment [1], the binding result was “binds”.

B2: DR935 (VHH)
VHH: QVQLVESGGGLVQAGGSLRLSCAASGRAFSTYALGWFRQAPGKEREFIAAISRGGGSTDYADSVKGRFTISRDNAKSTVYLQMNSLKPEDTAVYYCAARSYSSSYYYSQYEYDYWGQGTQVTVSS
notes: also called anti-IFNGR2 sdAb VHH DR935
As for B2, in experiment [1], the binding result is on record as “binds”.

B3: DR927 (VHH)
VHH: QVQLVESGGGLVQAGGSLRLSCAASGRTFTSYAMNWFRQAPGKEREFVAAISWSSGNTYVADSVKGRFAISRDKAKNTMYLQMNSLAPEDTAVYYCAATTIATMSDEYTYWGQGTQVTVSS
notes: also called anti-IFNGR2 sdAb VHH DR927
Consider B3, for which the binding result in experiment [1] is on record as “binds”.

B4: DR940 (VHH)
VHH: EVQLVESGGRLVQTGGSLRLSCAASGRTFSNYAMGWFRQAPGKEREFVAAISWYSGNTYYADSVKGRFTISRDNAKNTMYLQMNSLKPEDTAVYYCAANQIATMISVGDYWGQGTLVTVSS
notes: also called anti-IFNGR2 sdAb VHH DR940
As for B4, the binding result in experiment [1] is “binds”.

B5: DR938 (VHH)
VHH: QVQLVESGGGLVQPGGSLRLSCTASGRPRTTYAMGWFRQAPGKEREIVAAISKAGGSTYVADSAKGRFAISKDNAKNTVYLQMNSLKPEDTAVYYCAARAGFAAQIFEYDYWGQGTLVTVSS
notes: also called anti-IFNGR2 sdAb VHH DR938
On to B5, for which the binding result in experiment [1] is “binds”.

B6: DR928 (VHH)
VHH: QVQLVESGGGLVQAGGSLRLSCAASGRTFSNYRMGWFRQAPGKEREFVAAISRGGGTTLYADSVKGRFTISRDNAKNTVDLQMNRLKPEDTAVYFCAAGDFSTTWDEYNYWGQGTQVTVSS
notes: also called anti-IFNGR2 sdAb VHH DR928
Take B6: the binding result in experiment [1] was “binds”.

B7: DR921 (VHH)
VHH: QVQLVESGGGLVQAGDSLRLSCAASGRTFTFSTHNMGWFRQAPGKEREFVGGIMWTSRASYADSVKGRFTVSRDNAKNTVYLQMNSLKPEDTAVYYCAAAWYGNSGASYDYWGQGTQVTVSS
notes: also called anti-IFNGR1 sdAb VHH DR921
With B7, in experiment [2], the binding result was “binds”.

B8: DR936 (VHH)
VHH: EVQLVESGGGLVQAGGSLRLSCAASGRTFSSVAMAWFRQAPGKEREFVSAISSGGGSTDYADSVKGRFTISKDNAKNTMYLQMDSLKPEDTAVYYCAARDYSSRRYYQSRYEYDLWGLGTQVTVSS
notes: also called anti-IFNGR2 sdAb VHH DR936
As for B8, the binding result in experiment [1] is on record as “binds”.

B9: DR950 (VHH)
VHH: QVQLVESGGGLVQAGGSLRLSCAASGLTTSSAALAWFRQAPGKERELDPTITSGGGSTYYADSVKGRFTISKDNAKNTLYLQMSSLKPEDTAVYYCAARFYSTTYYYREHEYSDWGQGTQVTVSS
notes: also called anti-IFNGR2 sdAb VHH DR950
As to B9, the binding result in experiment [1] was “binds”.

B10: DR949 (VHH)
VHH: QVQLVESGGGLVQAGGSLRLSCAASESILRFNVMSWLRQAPGKQRELVAVITSGGSTNYADSVKGRFTISRDNAKNTVYLQMNSLKPEDTAVYYCAADESGQYYWGQGTQVTVSS
notes: also called anti-IFNGR2 sdAb VHH DR949
As to B10, the binding result in experiment [1] is given as “binds”.

B11: DR933 (VHH)
VHH: QVQLVESGGGLVQPGDSLRLSCVASGGTISSLAMGWFRQAPGKEREFVAAISWSGRSTYYVDSVKGRFTISTDNAKNTVYLQMNSLKPEDTAVYYCVAGEDGHSEYDYWGQGTQVTVSS
notes: also called anti-IFNGR2 sdAb VHH DR933
Turning to B11, the binding result in experiment [1] is listed as “binds”.

B12: DR948 (VHH)
VHH: QVQLVESGGGLVQAGDSLRLSCVASGSIDSSYYVSWFRQAPGKERDLVAAINWGDSRTAYADSVKGRFTISRDNAKNTVYLQMHSLRPNDTAVYYCASRIGLGGPVVAAPTRYPYWGQGTLVTVSS
notes: also called anti-IFNGR2 sdAb VHH DR948
Take B12: the binding result in experiment [1] is recorded as “binds”.

B13: DR937 (VHH)
VHH: QVQLVESGGGLVQPGGSLRLSCAASGRTFRSYSMGWFRQAPGKEREFVAAISWYSGTTYYADPVKGRFTISRDDAKNTLYLQMNSLKPEDTAVYYCAANEIATMESSNDYWGQGTQVTVSS
notes: also called anti-IFNGR2 sdAb VHH DR937
As to B13, the binding result in experiment [1] was “binds”.

B14: DR934 (VHH)
VHH: QVQLVESGGGLVQAGGSLRLSCAASGRSFANYAMGWFRQAPGKERETVAAISRGGGSTWYADSVKGRFTISKDNAKNTVYLQMNSLKPEDTAIYYCAARSYSGSYTYSFGEYDYWGQGTQVTVSS
notes: also called anti-IFNGR2 sdAb VHH DR934
As to B14, the binding result in experiment [1] is on record as “binds”.

B15: DR932 (VHH)
VHH: QVQLVESGGGLVQAGGFLRLSCAASGRTFSYTTIGWFRQAPGKEREFVAVISAGGGSRDYADALKGRFTISRDNAKKMVYLQMNNLKPEDTAVYYCAVRRNTDTYTTTGDYDYWGQGTQVTVSS
notes: also called anti-IFNGR2 sdAb VHH DR932
Take B15: in experiment [1], the binding result is “binds”.

B16: DR947 (VHH)
VHH: QVQLVESGGGLVQAGGSLRLSCAASGGSFGRYTMGWYRQAPGKEREFVAVISWSGTNTYYADSVKGRFTISRDNAKNTMYLQMNDLKPEDTAVYYCAARETYYSHWDERMEYDYWGQGTQVTVSS
notes: also called anti-IFNGR2 sdAb VHH DR947
Take B16: in experiment [1], the binding result was “binds”.

B17: DR939 (VHH)
VHH: EVQLVESGGGLVQAGGSMRLSCANSGRTFGTYAMGWFRQSPGKERERVASIDRDGSMSYYADSVKGRFTISGDNAKNTVYLQMNSLKPEDTAVYYCAASRRAVISLQTVDYWGQGTQVTVSS
notes: also called anti-IFNGR2 sdAb VHH DR939
As to B17, the binding result in experiment [1] is given as “binds”.

B18: DR946 (VHH)
VHH: QVQLVESGGGLVQPGESLRLSCAASGPFTRYAMGWFRQAPGKEREFVAAISWSSGNTYYVDSVKGRFTISRDNAKNTMYLQMNSLKPEDTAVYYCAANEVATMSGPDDYWGQGTQVTVSS
notes: also called anti-IFNGR2 sdAb VHH DR946
Turning to B18, the binding result in experiment [1] is given as “binds”.

B19: DR931 (VHH)
VHH: QVQLVESGGGLVQAGGSLLLSCAASGRTFSTYAMGWFRQAPGKERMFVAAISVNGGSTYYADSVTGRFTISRDNAKNTMYLQMNNLKPGDTAVYYCAARRPYPGSDFLTWASYDYRGQGTLVTVSS
notes: also called anti-IFNGR2 sdAb VHH DR931
As to B19, the binding result in experiment [1] was “binds”.

B20: DR904 (VHH)
VHH: EVQLVESGGGLVQAGGSLRLSCEASESILSINTMGWFRQAPGKQRELVAAISSGGSTNYADSVKGRFTISRDNAKNTVYLQMNSLKPEDTAVYYCDADRAYYKGQGTQVTVSS
notes: also called anti-IFNGR1 sdAb VHH DR904
On to B20, for which the binding result in experiment [2] was “binds”.

B21: DR941 (VHH)
VHH: QVQLVESGGGLVEAGGSLRLACAASGSIFRLNLMGWYRQAPGKQRELVAHVGTTGNTAYADSVKGRFTISKDDAKNMVFLQMNSLKPEDTAVYYCYADRWGQFSWGQGTQVTVSS
notes: also called anti-IFNGR2 sdAb VHH DR941
As for B21, the binding result in experiment [1] is recorded as “binds”.

B22: DR929 (VHH)
VHH: QVQLVESGGGLVQAGGSLRLSCVASGRTFSSYAMGWFRQTPGKEREFVSAISRGGGSTDYADSVKGRFTISRDNAKNTVYLQMNNLKSEDTAVYYCALRAYSGRYYQFLEYDYWGQGTQVTVSS
notes: also called anti-IFNGR2 sdAb VHH DR929
On to B22, for which the binding result in experiment [1] was “binds”.

B23: DR930 (VHH)
VHH: EVQLVESGGGLVQAGGSLRLSCTVSGRTFSSYAVAWFRQAPGNVRELAAALSRGGGSAYYTDSVKGRFTISRDNAKNTVYLQMNSLKPEDTAVYYCAARNYDGTYYQENQYNYWGQGTQVTVSS
notes: also called anti-IFNGR2 sdAb VHH DR930
Regarding B23, the binding result in experiment [1] is on record as “binds”.

B24: DR952 (VHH)
VHH: QVQLVESGGGLVQAGGFLRLSCAASGRTFSSLAMAWFRQAPGKEREFVAAISRSGGSTDYADSVKGRFTISRDNAKSTLYLQMSSLKPEDTAVYYCAARDYSTLQYYNEYEYSDWGQGTLVTVSS
notes: also called anti-IFNGR2 sdAb VHH DR952
With B24, in experiment [1], the binding result is listed as “binds”.

B25: DR919 (VHH)
VHH: EVQLVESGGGLVQPGGFLRLSCAASRRTLSTYAMGWFRQAPGKEREFVAAISWRSGNTYYADSVKGRFTISRDNAKNTMYLQMNSLKPEDTAVYYCAANEVATMSGPHDHWGQGTLVTVSS
notes: also called anti-IFNGR1 sdAb VHH DR919
For B25, the binding result in experiment [2] is given as “binds”.

B26: DR943 (VHH)
VHH: QVQLVESGGGLVQAGGSLRLSCVASGRTVGYGMAWFRQAPGKQRDVVAAITWSGTSTYYPDSVKGRFTISRDNAKNTMYLQMSSLKPEDTAVYYCAAGSRRRVGVDVGGYDYWGQGTQVTVSS
notes: also called anti-IFNGR2 sdAb VHH DR943
Turning to B26, the binding result in experiment [1] is on record as “binds”.
